In assay [1] the target is Basigin (residues 22-205) (UniProt P35613). Briefly: SPR, RH5ΔNL (8 to 0.0625 µM) injected over immobilized basigin, 1:1 binding model; RH5ΔNL fragment (residues 140-526 lacking 248-296). In general terms: Surface plasmon resonance follows binding to a sensor surface in real time, without labels.
For assay [2] the target is unchanged. Briefly: not stated; given for comparison with the SPR value of RH5ΔNL; full-length RH5 (FLRH5).

Among the data in US20170209558A1 are Kd values, retold here.

With “RH5ΔNL (PfRH5 fragment, 7G8 strain, residues 140-526 lacking residues 248-296, C-terminal hexa-histidine tag) (from UniProt Q8IFM5 140-526) (ligand)”, in assay [1], the Kd – broadly, the constant that tells how readily two partners part at equilibrium – was 1300 nM. For the substance “full-length PfRH5 (7G8 strain), recombinant, C-terminal hexa-histidine tag (from UniProt Q8IFM5 24-526) (ligand)”, the Kd in assay [2] turned out to be 1100 nM.
